From publication PMC5775921 (Chemical biology & drug design, 2017)
Ends that are not written are not given here.

Columns and labels:
[1] = target: recombinant extracellular domain of EGFR protein (Homo sapiens, UniProt P00533); experiment: SPR binding to immobilized EGFR extracellular domain; details: peptide 0 to 200 μM as analyte
[2] = target: HER3 (UniProt P21860); experiment: SPR
HER3, sequence (P21860 20-1342): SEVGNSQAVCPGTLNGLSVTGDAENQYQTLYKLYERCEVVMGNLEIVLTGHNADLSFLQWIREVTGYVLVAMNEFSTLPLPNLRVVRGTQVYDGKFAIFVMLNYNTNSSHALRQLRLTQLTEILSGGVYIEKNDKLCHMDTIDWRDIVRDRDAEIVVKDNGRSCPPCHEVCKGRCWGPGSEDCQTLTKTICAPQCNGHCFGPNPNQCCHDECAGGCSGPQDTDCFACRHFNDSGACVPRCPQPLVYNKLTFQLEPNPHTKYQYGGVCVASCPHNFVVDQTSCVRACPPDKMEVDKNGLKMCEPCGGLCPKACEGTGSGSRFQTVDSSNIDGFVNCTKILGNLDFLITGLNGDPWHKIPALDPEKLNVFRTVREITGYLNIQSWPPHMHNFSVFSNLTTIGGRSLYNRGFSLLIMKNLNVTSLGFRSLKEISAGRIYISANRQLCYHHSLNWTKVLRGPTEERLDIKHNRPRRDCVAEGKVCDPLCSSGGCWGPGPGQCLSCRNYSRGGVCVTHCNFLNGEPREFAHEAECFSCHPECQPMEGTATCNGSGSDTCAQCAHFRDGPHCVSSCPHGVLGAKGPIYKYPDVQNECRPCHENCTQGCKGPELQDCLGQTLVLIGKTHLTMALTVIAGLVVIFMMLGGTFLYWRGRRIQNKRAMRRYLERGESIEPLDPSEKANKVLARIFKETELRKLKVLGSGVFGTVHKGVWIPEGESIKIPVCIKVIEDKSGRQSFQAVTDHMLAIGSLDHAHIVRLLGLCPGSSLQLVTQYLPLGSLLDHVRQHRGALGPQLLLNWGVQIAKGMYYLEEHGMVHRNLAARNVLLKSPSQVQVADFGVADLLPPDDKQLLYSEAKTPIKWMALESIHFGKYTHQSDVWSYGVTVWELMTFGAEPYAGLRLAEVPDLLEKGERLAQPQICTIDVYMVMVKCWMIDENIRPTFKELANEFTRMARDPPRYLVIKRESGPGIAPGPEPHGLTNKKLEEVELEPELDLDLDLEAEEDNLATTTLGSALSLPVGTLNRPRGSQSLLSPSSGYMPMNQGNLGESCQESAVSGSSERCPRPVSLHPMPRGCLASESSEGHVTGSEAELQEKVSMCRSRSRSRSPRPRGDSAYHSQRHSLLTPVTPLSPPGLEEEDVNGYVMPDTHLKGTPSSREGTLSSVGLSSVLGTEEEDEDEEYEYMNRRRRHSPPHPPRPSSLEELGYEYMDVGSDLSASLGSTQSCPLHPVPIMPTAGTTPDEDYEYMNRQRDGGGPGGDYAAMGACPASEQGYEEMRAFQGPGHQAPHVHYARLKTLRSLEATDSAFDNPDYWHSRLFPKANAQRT

In the case of “GLARLLT-CONH2 (GLARLLT-NH2) [Peptide L1.6]”, the “binding to EGFR as seen by SPR” value [1] is reported as “exhibited binding to the EGFR protein in a concentration-dependent manner”.
With “Cyclo.L1.1: Cyclo(K(N3)larllt) (peptide)” the Kd [2] was 50 µM.
tllarl-CONH2 [Peptide L1.3] was tested, and the “binding to EGFR as seen by SPR” value [1] was “exhibited binding to the EGFR protein in a concentration-dependent manner”.
